Assay results as given in patent US20230220071A1 (Hoffmann-La Roche, published 2023).
Residue numbers refer to the chain shown, from its start.

B1: clone 299 VH 20 / VL 0 (rb) (antibody, V domains shown)
VH: QSMQESGPGLVKPSQTLSLTCTVSGFSLSSYAMSWIRQHPGKGLEWIGYIWSGGSTDYAPSLKSRVTISVDTSKNQVSLKLSSVTAADTAVYYCARRYGTSYPDYGDANGFDPWGQGTLVTVSS
VL: AYDMTQTPASVEVAVGGTVTIKCQASQSISSYLSWYQQKPGQRPKLLIYRASTLASGVSSRFKGSGSGTQFTLTISGVECADAATYYCQQCYSSSNVDNTFGGGTEVVVK
B2: clone 299 VH 12 / VL 0 (rb) (antibody, V domains shown)
VH: QVQLQESGPGLVKPSETLSLTCTVSGFSLSSYAMSWIRQPPGKGLEWIGYIWSGGSTDYNPSLKSRVTISVDTSKNQFSLKLSSVTAADTAVYYCARRYGTSYPDYGDANGFDPWGQGTLVTVSS
VL: B1 VL
B3: clone 299 VH 23-DANG / VL 0 (rb) (antibody, V domains shown)
VH: QSMQESGPGLVKPSQTLSLTCTVSGFSLSSYAMSWIRQHPGKGLEWIGYIWSGGSTDYASWAKSRVTISKTSTTVSLKLSSVTAADTAVYYCARRYGTSYPDYGDANGFDPWGQGTLVTVSS
VL: B1 VL
B4: clone 299 VH 11 / VL 0 (rb) (antibody, V domains shown)
VH: QQLLESGGGLVQPGGSLRLSCAASGFSLSSYAMSWVRQAPGKGLEWVGYIWSGGSTDYADSVKGRFTISRDNSKNTLYLQMNSLRAEDTAVYYCARRYGTSYPDYGDANGFDPWGQGTLVTVSS
VL: B1 VL
B5: clone 299 VH 7 / VL 0 (rb) (antibody, V domains shown)
VH: B4 VH with L4V, S6T, V11I, V47I, D60S, S61W, V62A
VL: B1 VL
B6: clone 299 VH 5 / VL 0 (rb) (antibody, V domains shown)
VH: B4 VH with Q2S, L3M, L4E, S6T, V11I, Q116P
VL: B1 VL
B7: clone 299 VH 19 / VL 0 (rb) (antibody, V domains shown)
VH: B1 VH with V77F
VL: B1 VL
B8: clone 299 VH 18 / VL 0 (rb) (antibody, V domains shown)
VH: B2 VH with E16Q, P40H, N60A
VL: B1 VL
B9: clone 299 VH 22 / VL 0 (rb) (antibody, V domains shown)
VH: B1 VH with I36V, P60S, S61W, L62A
VL: B1 VL
B10: clone 299 VH 17 / VL 0 (rb) (antibody, V domains shown)
VH: B1 VH with S2Q, M3L, Q15E, I36V, H39P, A59N, V70K, Q116P
VL: B1 VL
B11: clone 299 VH 21 / VL 0 (rb) (antibody, V domains shown)
VH: B1 VH with P60S, S61W, L62A
VL: B1 VL
B12: clone 299 VH 16 / VL 0 (rb) (antibody, V domains shown)
VH: B1 VH with S2Q, M3L, Q15E, I36V, H39P, A59N, Q116P
VL: B1 VL
B13: clone 299 VH 15 / VL 0 (rb) (antibody, V domains shown)
VH: B1 VH with S2Q, M3L, Q15E, I36V, H39P, A59N
VL: B1 VL
B14: clone 299 VH 1 / VL 0 (rb) (antibody, V domains shown)
VH: B4 VH with Q1V, L4V, S6T, V11I
VL: B1 VL
B15: clone 299 VH 9 / VL 0 (rb) (antibody, V domains shown)
VH: B4 VH with S27T, L28F, R96K
VL: B1 VL
B16: clone 299 VH 0 (rb) / VL 5 (antibody, V domains shown)
VH: QSMEESGGRLVTPGTPLTLTCTVSGFSLSSYAMSWVRQAPGKGLEWIGYIWSGGSTDYASWAKGRFTISKTSTTVDLKITSPTTEDTATYFCARRYGTSYPDYGDANGFDPWGPGTLVTVSS
VL: DIQMTQSPSSLSASVGDRVTITCRASQSISSYLSWYQQKPGKAPKLLIYRASTLASGVPSRFSGSGSGTDFTLTISSLQPEDFATYYCQQSYSSSNVDNTFGGGTKVEIK
B17: clone 299 VH 0 (rb) / VL 14 (antibody, V domains shown)
VH: B16 VH
VL: DIVMTQSPDSLAVSLGERATINCKSSQSISSYLSWYQQKPGQRPKLLIYRASTLASGVPDRFSGSGSGTDFTLTISSLQAEDVAVYYCQQSYSSSNVDNTFGGGTKVEIK
B18: clone 299 VH 20 / VL 9-NYA (antibody, V domains shown)
VH: B1 VH
VL: B16 VL with D1A, M4L, S34A, S91N, S93A
B19: clone 299 VH 0 (rb) / VL 8 (antibody, V domains shown)
VH: B16 VH
VL: B16 VL with D1A, I2Y, M4L
B20: clone 299 VH 0 (rb) / VL 15 (antibody, V domains shown)
VH: B16 VH
VL: B17 VL with S34I, R43P, S91A
B21: clone 299 VH 16 / VL 9-NYA (antibody, V domains shown)
VH: B1 VH with S2Q, M3L, Q15E, I36V, H39P, A59N, Q116P
VL: B16 VL with D1A, M4L, S34A, S91N, S93A
B22: clone 299 VH 0 (rb) / VL 12 (antibody, V domains shown)
VH: B16 VH
VL: B16 VL with S34A, G66R, S91H
B23: clone 299 VH 13 / VL 9-NYA (antibody, V domains shown)
VH: B2 VH with F78V
VL: B16 VL with D1A, M4L, S34A, S91N, S93A
B24: clone 299 VH 9 / VL 9-NYA (antibody, V domains shown)
VH: B4 VH with S27T, L28F, R96K
VL: B16 VL with D1A, M4L, S34A, S91N, S93A
B25: clone 299 VH 18 / VL 9-NYA (antibody, V domains shown)
VH: B2 VH with E16Q, P40H, N60A
VL: B16 VL with D1A, M4L, S34A, S91N, S93A
B26: clone 299 VH 17 / VL 9-NYA (antibody, V domains shown)
VH: B1 VH with S2Q, M3L, Q15E, I36V, H39P, A59N, V70K, Q116P
VL: B16 VL with D1A, M4L, S34A, S91N, S93A
B27: clone 299 VH 22 / VL 9-NYA (antibody, V domains shown)
VH: B1 VH with I36V, P60S, S61W, L62A
VL: B16 VL with D1A, M4L, S34A, S91N, S93A
B28: clone 299 VH 21 / VL 9-NYA (antibody, V domains shown)
VH: B1 VH with P60S, S61W, L62A
VL: B16 VL with D1A, M4L, S34A, S91N, S93A
B29: clone 299 VH 19 / VL 9-NYA (antibody, V domains shown)
VH: B1 VH with V77F
VL: B16 VL with D1A, M4L, S34A, S91N, S93A
B30: clone 299 VH 0 (rb) / VL 10 (antibody, V domains shown)
VH: B16 VH
VL: B16 VL with G66R
B31: clone 299 VH 15 / VL 9-NYA (antibody, V domains shown)
VH: B1 VH with S2Q, M3L, Q15E, I36V, H39P, A59N
VL: B16 VL with D1A, M4L, S34A, S91N, S93A
B32: clone 299 VH 0 (rb) / VL 6 (antibody, V domains shown)
VH: B16 VH
VL: B16 VL with D1A, M4L
B33: clone 299 VH 0 (rb) / VL 17 (antibody, V domains shown)
VH: B16 VH
VL: B16 VL with D1A, M4L, S34A, S91T
B34: clone 299 VH 12 / VL 9-NYA (antibody, V domains shown)
VH: B2 VH
VL: B16 VL with D1A, M4L, S34A, S91N, S93A
B35: clone 299 VH 0 (rb) / VL 7 (antibody, V domains shown)
VH: B16 VH
VL: B16 VL with D1A, M4L, S34A
B36: clone 299 VH 11 / VL 9-NYA (antibody, V domains shown)
VH: B4 VH
VL: B16 VL with D1A, M4L, S34A, S91N, S93A

Each binder was assayed against T1, human transferrin receptor (BIAcore, construct not stated) (human, UniProt P02786 89-760) (assay: SPR, 25 C).
T1 construct: also called huTfR
T1 sequence (P02786 89-760): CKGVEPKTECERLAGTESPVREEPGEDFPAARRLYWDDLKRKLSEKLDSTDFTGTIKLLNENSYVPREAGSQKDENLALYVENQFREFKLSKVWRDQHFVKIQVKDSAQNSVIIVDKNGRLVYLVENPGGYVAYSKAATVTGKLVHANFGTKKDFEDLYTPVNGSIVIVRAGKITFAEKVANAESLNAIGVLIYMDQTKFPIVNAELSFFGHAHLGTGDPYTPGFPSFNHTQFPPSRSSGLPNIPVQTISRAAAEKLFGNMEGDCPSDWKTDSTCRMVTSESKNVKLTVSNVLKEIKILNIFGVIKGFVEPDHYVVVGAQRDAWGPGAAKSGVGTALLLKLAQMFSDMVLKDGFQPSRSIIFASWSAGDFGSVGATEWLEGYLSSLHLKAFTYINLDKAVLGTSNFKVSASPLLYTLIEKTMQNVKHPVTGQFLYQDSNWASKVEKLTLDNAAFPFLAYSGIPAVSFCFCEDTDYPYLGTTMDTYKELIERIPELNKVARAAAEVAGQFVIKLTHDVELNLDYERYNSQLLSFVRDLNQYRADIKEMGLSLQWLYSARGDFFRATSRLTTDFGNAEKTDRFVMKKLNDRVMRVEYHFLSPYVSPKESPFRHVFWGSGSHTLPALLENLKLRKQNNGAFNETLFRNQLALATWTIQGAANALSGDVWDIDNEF

Row | koff | Binder
1 | 0.00111 s⁻¹ | B1
2 | 0.000921 s⁻¹ | B2
3 | 0.000338 s⁻¹ | B3
4 | 0.000905 s⁻¹ | B4
5 | 0.000515 s⁻¹ | B5
6 | 0.000772 s⁻¹ | B6
7 | 0.001 s⁻¹ | B7
8 | 0.00109 s⁻¹ | B8
9 | 0.000506 s⁻¹ | B9
10 | 0.000413 s⁻¹ | B10
11 | 0.000565 s⁻¹ | B11
12 | 0.000653 s⁻¹ | B12
13 | 0.000763 s⁻¹ | B13
14 | 0.000908 s⁻¹ | B14
15 | 0.000901 s⁻¹ | B15
16 | 0.00194 s⁻¹ | B16
17 | 0.00178 s⁻¹ | B17
18 | 0.00189 s⁻¹ | B18

Row | koff | Binder
19 | 0.00139 s⁻¹ | B19
20 | 0.00663 s⁻¹ | B20
21 | 0.00136 s⁻¹ | B21
22 | 0.00541 s⁻¹ | B22
23 | 0.00139 s⁻¹ | B23
24 | 0.00252 s⁻¹ | B24
25 | 0.00221 s⁻¹ | B25
26 | 0.000934 s⁻¹ | B26
27 | 0.00126 s⁻¹ | B27
28 | 0.00113 s⁻¹ | B28
29 | 0.00617 s⁻¹ | B29
30 | 0.00188 s⁻¹ | B30
31 | 0.00142 s⁻¹ | B31
32 | 0.0019 s⁻¹ | B32
33 | 0.00149 s⁻¹ | B33
34 | 0.00219 s⁻¹ | B34
35 | 0.00463 s⁻¹ | B35
36 | 0.00242 s⁻¹ | B36
